Assay results reported in patent US7070771.

Molecular target: CD40 (human, on CLL B cells and CD40-positive tumor cell lines) (human) (UniProt P25942)
Assay: cell-based or functional assay

UniProt P25942, sequence (P25942 21-277): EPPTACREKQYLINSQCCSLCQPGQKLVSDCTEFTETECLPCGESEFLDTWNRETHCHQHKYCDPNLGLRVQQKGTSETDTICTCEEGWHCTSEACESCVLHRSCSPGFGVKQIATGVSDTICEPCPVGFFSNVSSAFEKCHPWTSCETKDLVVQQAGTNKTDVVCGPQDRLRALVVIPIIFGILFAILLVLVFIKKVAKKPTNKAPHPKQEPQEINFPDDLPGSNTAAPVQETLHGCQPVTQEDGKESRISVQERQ

- % positive cells, Human CD80 (CLL cells): 26.7%
Substance: G28-5 (an anti-CD40 monoclonal antibody)
